Source: publication PMC10397247
Read-outs that look alike come from different tables or passages of the source.

Experiments:
Assay in all cases: two-hybrid library CCmax;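 further: natural log of median RNA to DNA barcode read ratio; higher means stronger binding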
4H3427-AA = molecular target: T1, 4H3427-AA; settings: mean of both orientations
T1 chain: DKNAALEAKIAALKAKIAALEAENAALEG

4H717-AA = molecular target: T2, 4H717-AA; settings: mean of both orientations
T2 chain: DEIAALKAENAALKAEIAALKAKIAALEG

4H3921-AA = molecular target: T3, 4H3921-AA; settings: mean of both orientations
T3 chain: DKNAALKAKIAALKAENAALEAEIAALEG

4H566-AA = molecular target: T4, 4H566-AA; settings: mean of both orientations
T4 chain: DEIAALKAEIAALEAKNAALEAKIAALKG

4H3627-AA = molecular target: T5, 4H3627-AA; settings: mean of both orientations
T5 chain: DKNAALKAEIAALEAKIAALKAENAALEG

4H342-AA = molecular target: T6, 4H342-AA
T6 chain: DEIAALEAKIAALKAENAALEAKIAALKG

4H3606-AA = molecular target: T7, 4H3606-AA; settings: mean of both orientations
T7 chain: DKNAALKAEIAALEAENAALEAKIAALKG

4H780-AA = molecular target: T8, 4H780-AA; settings: mean of both orientations
T8 chain: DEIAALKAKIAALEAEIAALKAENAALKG

4H906-AA = molecular target: T9, 4H906-AA; settings: mean of both orientations
T9 chain: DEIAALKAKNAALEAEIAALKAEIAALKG

4H678-AA = molecular target: T10, 4H678-AA; settings: mean of both orientations
T10 chain: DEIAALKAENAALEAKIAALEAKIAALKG

4H429-AA = molecular target: T11, 4H429-AA; settings: mean of both orientations
T11 chain: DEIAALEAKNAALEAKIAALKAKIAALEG

4H48-AA = molecular target: T12, 4H48-AA; settings: mean of both orientations
T12 chain: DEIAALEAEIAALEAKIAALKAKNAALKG

4H3655-AA = molecular target: T13, 4H3655-AA
T13 chain: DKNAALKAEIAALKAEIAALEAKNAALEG

4H454-AA = molecular target: T14, 4H454-AA; settings: mean of both orientations
T14 chain: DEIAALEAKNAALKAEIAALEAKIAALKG

4H3844-AA = molecular target: T15, 4H3844-AA
T15 chain: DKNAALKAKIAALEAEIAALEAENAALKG

4H881-AA = molecular target: T16, 4H881-AA; settings: mean of both orientations
T16 chain: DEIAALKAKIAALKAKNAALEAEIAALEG

4H605-AA = molecular target: T17, 4H605-AA; settings: mean of both orientations
T17 chain: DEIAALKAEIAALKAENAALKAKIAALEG

4H993-AA = molecular target: T18, 4H993-AA; settings: mean of both orientations
T18 chain: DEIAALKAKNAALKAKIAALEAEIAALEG

4H794-AA = molecular target: T19, 4H794-AA; settings: mean of both orientations
T19 chain: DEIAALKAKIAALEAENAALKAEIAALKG

4H656-AA = molecular target: T20, 4H656-AA
T20 chain: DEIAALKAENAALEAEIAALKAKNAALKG

4H697-AA = molecular target: T21, 4H697-AA
T21 chain: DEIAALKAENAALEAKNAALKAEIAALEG

4H982-AA = molecular target: T22, 4H982-AA
T22 chain: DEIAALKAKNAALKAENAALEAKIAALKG

4H570-AA = molecular target: T23, 4H570-AA; settings: mean of both orientations
T23 chain: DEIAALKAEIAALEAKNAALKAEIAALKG

4H710-AA = molecular target: T24, 4H710-AA; settings: mean of both orientations
T24 chain: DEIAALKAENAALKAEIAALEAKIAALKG

4H3865-AA = molecular target: T25, 4H3865-AA; settings: mean of both orientations
T25 chain: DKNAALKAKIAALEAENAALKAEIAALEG

4H458-AA = molecular target: T26, 4H458-AA; settings: mean of both orientations
T26 chain: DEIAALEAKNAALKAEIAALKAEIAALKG

4H850-AA = molecular target: T27, 4H850-AA; settings: mean of both orientations
T27 chain: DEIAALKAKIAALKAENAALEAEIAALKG

4H3753-AA = molecular target: T28, 4H3753-AA
T28 chain: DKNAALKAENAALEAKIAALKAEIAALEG

4H94-AA = molecular target: T29, 4H94-AA; settings: mean of both orientations
T29 chain: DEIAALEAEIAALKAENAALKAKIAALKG

4H930-AA = molecular target: T30, 4H930-AA; settings: mean of both orientations
T30 chain: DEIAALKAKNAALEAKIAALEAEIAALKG

4H745-AA = molecular target: T31, 4H745-AA; settings: mean of both orientations
T31 chain: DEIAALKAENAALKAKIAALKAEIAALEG

4H485-AA = molecular target: T32, 4H485-AA; settings: mean of both orientations
T32 chain: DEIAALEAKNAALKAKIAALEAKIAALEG

4H536-AA = molecular target: T33, 4H536-AA; settings: mean of both orientations
T33 chain: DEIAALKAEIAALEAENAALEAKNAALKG

4H629-AA = molecular target: T34, 4H629-AA; settings: mean of both orientations
T34 chain: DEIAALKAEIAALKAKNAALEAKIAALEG

4H797-AA = molecular target: T35, 4H797-AA; settings: mean of both orientations
T35 chain: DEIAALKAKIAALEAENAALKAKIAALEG

4H891-AA = molecular target: T36, 4H891-AA; settings: mean of both orientations
T36 chain: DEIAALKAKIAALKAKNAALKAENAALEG

4H909-AA = molecular target: T37, 4H909-AA; settings: mean of both orientations
T37 chain: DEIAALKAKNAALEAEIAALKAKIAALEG

4H3410-AA = molecular target: T38, 4H3410-AA
T38 chain: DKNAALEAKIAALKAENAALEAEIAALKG

4H3697-AA = molecular target: T39, 4H3697-AA; settings: mean of both orientations
T39 chain: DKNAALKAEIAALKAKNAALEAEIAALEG

4H3590-AA = molecular target: T40, 4H3590-AA; settings: mean of both orientations
T40 chain: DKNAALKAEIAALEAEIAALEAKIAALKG

## DEIAALEAKIAALKAENAALEAKIAALKG [4H342-AA]
4H3427-AA
  interaction score: -1.15
4H717-AA
  interaction score: -1.4
4H3921-AA
  interaction score: 0.975
4H566-AA
  interaction score: 2.31
4H3627-AA
  interaction score: 0.447
4H342-AA
  interaction score: 1.54
4H3606-AA
  interaction score: 1.55
4H780-AA
  interaction score: -1.58
4H906-AA
  interaction score: -1.52
4H678-AA
  interaction score: 0.227
4H429-AA
  interaction score: -0.49
4H48-AA
  interaction score: -0.491
4H3655-AA; mean of both orientations
  interaction score: -0.61
4H454-AA
  interaction score: 2.21
4H3844-AA; mean of both orientations
  interaction score: 0.569
4H881-AA
  interaction score: 2.49
4H605-AA
  interaction score: 1.41
4H993-AA
  interaction score: 1.17
4H794-AA
  interaction score: 1.25

## DKNAALKAKIAALEAEIAALEAENAALKG [4H3844-AA]
4H656-AA
  interaction score: -1.07
4H717-AA
  interaction score: -1.65
4H3921-AA
  interaction score: -1.65
4H566-AA
  interaction score: -1.77
4H780-AA
  interaction score: 0.995
4H906-AA
  interaction score: -1.43
4H678-AA
  interaction score: 0.663
4H429-AA
  interaction score: -0.665
4H48-AA
  interaction score: 1.16
4H454-AA
  interaction score: -0.212
4H3844-AA
  interaction score: 0.661
4H881-AA
  interaction score: -0.992
4H605-AA
  interaction score: -1.48
4H993-AA
  interaction score: -1.76
4H794-AA
  interaction score: -1.33

## DEIAALKAENAALEAKNAALKAEIAALEG [4H697-AA]
4H697-AA
  interaction score: -1.15
4H982-AA
  interaction score: 2.27

## DKNAALKAENAALEAKIAALKAEIAALEG [4H3753-AA]
4H570-AA
  interaction score: -1
4H710-AA
  interaction score: 2.05
4H3865-AA
  interaction score: -1.43
4H458-AA
  interaction score: 1.56
4H850-AA
  interaction score: -2
4H3753-AA
  interaction score: -0.536
4H94-AA
  interaction score: -1.45
4H930-AA
  interaction score: -1.43
4H745-AA
  interaction score: -0.67
4H485-AA
  interaction score: 1.4
4H536-AA
  interaction score: -1.2
4H629-AA
  interaction score: -1.7
4H797-AA
  interaction score: -1.42
4H891-AA
  interaction score: -1.97
4H909-AA
  interaction score: -0.932

## DKNAALEAKIAALKAENAALEAEIAALKG [4H3410-AA]
4H570-AA
  interaction score: 2.09
4H710-AA
  interaction score: -1.13
4H3865-AA
  interaction score: 0.873
4H458-AA
  interaction score: 1.79
4H850-AA
  interaction score: -0.83
4H3410-AA
  interaction score: 0.0832
4H3753-AA; mean of both orientations
  interaction score: -1.39
4H94-AA
  interaction score: 1.3
4H930-AA
  interaction score: -1.36
4H745-AA
  interaction score: -0.581
4H3697-AA
  interaction score: -0.574
4H485-AA
  interaction score: -0.0439
4H536-AA
  interaction score: -1.39
4H629-AA
  interaction score: -1.53
4H3590-AA
  interaction score: -0.698
4H797-AA
  interaction score: -1.22
4H891-AA
  interaction score: -1.42
4H909-AA
  interaction score: -1.45

## DKNAALKAEIAALKAEIAALEAKNAALEG [4H3655-AA]
4H717-AA
  interaction score: -1.27
4H3921-AA
  interaction score: -1.55
4H566-AA
  interaction score: -1.03
4H780-AA
  interaction score: -1.83
4H906-AA
  interaction score: -1.03
4H678-AA
  interaction score: -0.956
4H429-AA
  interaction score: -1.13
4H48-AA
  interaction score: 0.736
4H3655-AA
  interaction score: 0.24
4H454-AA
  interaction score: -0.827
4H3844-AA; mean of both orientations
  interaction score: -1.26
4H881-AA
  interaction score: -0.202
4H605-AA
  interaction score: -1.25
4H993-AA
  interaction score: -1.32
4H794-AA
  interaction score: -1.61

## DEIAALKAKNAALKAENAALEAKIAALKG [4H982-AA]
4H982-AA
  interaction score: 0.123
